Data published in patent publication US20130171152A1 (published 2013).
Where a chain is given by its changes, count along the chain named. Read-outs that look alike come from different tables or passages of the source.

Legend:
[1] = biological target: Homo sapiens MUC16 (GenBank NP-078966)
[2] = biological target: Homo sapiens MUC16 (GenBank NP-078966); remark: listed apart in the source

B1: 4A5.37 (antibody, V domains shown)
VH: VKLEESGGGFVKPGGSLKISCAASGFTFRNYAMSWVRLSPEMRLEWVATISSAGGYIFYSDSVQGRFTISRDNAKNTLHLQMGSLRSGDTAMYYCARQGFGNYGDYYAMDYWGQGTTVTVSS
VL: DIELTQSPSSLAVSAGEKVTMSCKSSQSLLNSRTRKNQLAWYQQKTGQSPELLIYWASTRQSGVPDRFTGSGSGTDFTLTISSVQAEDLAVYYCQQSYNLLTFGPGTKLEIKR
**Q.** B1 was tested. Which Kd [1] did it give?
**A.** 7.3 nM

B2: 4H11.2.5 (antibody, V domains shown)
VH: B1 VH with E4Q, I19V, R29S, N30S
VL: B1 VL with T46P, I111V
**Q.** How did the Kd [2] turn out when B2 was run?
**A.** 6.8 nM
